For test [1], the target named is T1, HtrA2 (High temperature requirement protease A2), mature (Δ133 HtrA2), wild type (UniProt O43464 134-458).
T1 construct: HtrA2 (High temperature requirement protease A2), mature form Δ133, 325 amino acids; numbers count on: the mature protein; source: E. coli BL21 (DE3) pLysS, purified (nickel-IDA, gel permeation chromatography)
T1 sequence (looked up): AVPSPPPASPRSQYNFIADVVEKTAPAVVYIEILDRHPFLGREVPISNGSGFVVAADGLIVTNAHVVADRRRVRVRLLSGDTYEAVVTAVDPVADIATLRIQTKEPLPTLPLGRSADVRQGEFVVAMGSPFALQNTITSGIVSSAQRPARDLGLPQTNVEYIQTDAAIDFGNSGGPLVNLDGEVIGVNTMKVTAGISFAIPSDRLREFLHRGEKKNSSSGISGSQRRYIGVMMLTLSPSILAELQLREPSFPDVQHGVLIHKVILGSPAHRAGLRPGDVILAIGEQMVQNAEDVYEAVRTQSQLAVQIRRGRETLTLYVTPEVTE
The test can be described thus: ITC; MicroCal ITC200; 200 µl of wild type or N216A/S219A HtrA2 (20 to 50 µM) in the cell, titrated with 1.5 µl injections of 0.4 mM activator peptide; 20 mM Na2HPO4/NaH2PO4, 100 mM NaCl, pH 7.8; 25°C; one site-binding model. The conditions noted are these: both partners purified. Background: ITC needs no label: the signal is the heat of the interaction.

The target in test [2] is HtrA2 N-SPD (N-terminal and serine protease domains, residues 1-210).
Test [3] has as its target HtrA2 (High temperature requirement protease A2), mature (Δ133 HtrA2), wild type (UniProt O43464).

By Kd is commonly meant a measure of binding affinity in units of concentration. Read a high Kd as lower affinity.

B1: 13mer activating peptide SEHRRHFPNCFFV (peptide)
peptide: SEHRRHFPNCFFV
In test [1], B1 had a Kd of 7.5 µM.

B2: FITC-labelled β-casein (natural protein)
chain: RELEELNVPGEIVESLSSSEESITRINKKIEKFQSEEQQQTEDELQDKIHPFAQTQSLVYPFPGPIPNSLPQNIPPLTQTPVVVPPFLQPEVMGVSKVKEAMAPKHKEMPFPKYPVEPFTESQSLTLTDVENLHLPLPLLQSWMHQPHQPLPPTVMFPPQSVLSLSQSKVLPVPQKAVPYPQRDMPIQAFLLYQEPVLGPVRGPFPIIV
modifications: FITC label
Consider B2, for which the Km, cleavage of FITC-labelled β-casein (steady state kinetics) is 3.02 µM in test [2] and 4.59 µM in test [3].

Source of the values: publication PMC3573033, “Allosteric Regulation of Serine Protease HtrA2 through Novel Non-Canonical Substrate Binding Pocket” (PLoS ONE, 2013).
